Source: US5908790A, “Methods for removing heavy metals from aqueous solutions and for analysis” (Behring Diagnostics GmbH, priority 1990, dated 1999)

Legend:
Type in all cases: binding
[1] = Quantitative inhibition ELISA of mAB, competitor DTPA; details: competitor DTPA (noncomplexed); solid phase Y benzyl-DTPA-HSA conjugate
Experimental: (§1) The ELISA comprised a solid phase which was loaded with a solution containing human serum albumin (HSA)-benzyl-DTPA. The supernatant which was to be tested and contained the mAB was preincubated with free complexone or the metal ion complex thereof, and its binding to the specific solid phase was measured. For this purpose, an enzyme amplification system which is coupled to an anti-mouse-immunoglobulin antibody was used. The details of this method are described in Examples 2 and 3.
(§2) The complexones DTPA and EDTA in noncomplexed and in complexed form (Example 4) were used as competitors. Additionally, the structurally related compounds transaconitic acid and 1,2-diaminoethane were used as inhibitors (see Tab. I). The excess amounts of competitor presented in Tab. […] These characteristics make it possible to use the mAB, e.g. coupled on filters or other solid supports, for removing both noncomplexed EDTA or DTPA and EDTA-metal ion or DTPA-metal ion complexes from liquids. Precipitation reactions of mAB-/EDTA-metal ion complexes are likewise suitable for removing the toxic metal ions.
(§3) Divisible 96-well polystyrene microtiter plates (U-shape) type B. supplied by Nunc, No. 4-60445 were employed as support material. The assay was carried out according to the following protocol. […]
(§4) (15) The extinctions are measured at 492 nm in the TITERTEK^R MULTISCAN. […]

[2] = Quantitative inhibition ELISA of mAB, competitor EDTA
Experimental: as §1, §2, §3, §4

[3] = test system: DTPA-Mn; experiment: Quantitative inhibition ELISA of mAB, competitor DTPA-Mn; details: solid phase Y benzyl-DTPA-HSA conjugate
Experimental: as §1, §2, §3, §4

[4] = test system: DTPA-Zn; experiment: Quantitative inhibition ELISA of mAB, competitor DTPA-Zn; details: solid phase Y benzyl-DTPA-HSA conjugate
Experimental: as §1, §2, §3, §4

[5] = test system: EDTA-Zn; experiment: Quantitative inhibition ELISA of mAB, competitor EDTA-Zn; details: solid phase Y benzyl-DTPA-HSA conjugate
Experimental: as §1, §2, §3, §4

[6] = Quantitative inhibition ELISA of mAB, competitor transaconitic acid; details: competitor trans-aconitic acid; no inhibition up to the stated excess
Experimental: as §1, §2, §3, §4

[7] = test system: DTPA-Cd; experiment: Quantitative inhibition ELISA of mAB, competitor DTPA-Cd; details: solid phase Y benzyl-DTPA-HSA conjugate
Experimental: as §1, §2, §3, §4

[8] = test system: EDTA-Cu; experiment: Quantitative inhibition ELISA of mAB, competitor EDTA-Cu; details: solid phase Y benzyl-DTPA-HSA conjugate
Experimental: as §1, §2, §3, §4

[9] = test system: DTPA-Cu; experiment: Quantitative inhibition ELISA of mAB, competitor DTPA-Cu; details: solid phase Y benzyl-DTPA-HSA conjugate
Experimental: as §1, §2, §3, §4

[10] = test system: EDTA-Mn; experiment: Quantitative inhibition ELISA of mAB, competitor EDTA-Mn; details: solid phase Y benzyl-DTPA-HSA conjugate
Experimental: as §1, §2, §3, §4

[11] = test system: EDTA-Y; experiment: Quantitative inhibition ELISA of mAB, competitor EDTA-Y; details: solid phase Y benzyl-DTPA-HSA conjugate
Experimental: as §1, §2, §3, §4

[12] = test system: EDTA-Pb; experiment: Quantitative inhibition ELISA of mAB, competitor EDTA-Pb; details: solid phase Y benzyl-DTPA-HSA conjugate
Experimental: as §1, §2, §3, §4

[13] = test system: DTPA-Y; experiment: Quantitative inhibition ELISA of mAB, competitor DTPA-Y; details: solid phase Y benzyl-DTPA-HSA conjugate
Experimental: as §1, §2, §3, §4

[14] = test system: EDTA-Cd; experiment: Quantitative inhibition ELISA of mAB, competitor EDTA-Cd; details: solid phase Y benzyl-DTPA-HSA conjugate
Experimental: as §1, §2, §3, §4

[15] = test system: DTPA-Pb; experiment: Quantitative inhibition ELISA of mAB, competitor DTPA-Pb; details: solid phase Y benzyl-DTPA-HSA conjugate
Experimental: as §1, §2, §3, §4

[16] = Quantitative inhibition ELISA of mAB, competitor 1,2-diaminoethane; details: no inhibition up to the stated excess
Experimental: as §1, §2, §3, §4

B1: mAB 2050/535: particularly suitable anti-EDTA/DTPA monoclonal antibody; VL and VH sequences in SEQ ID NO:1-4 (antibody, V domains shown)
VH: LQQSGAELVKPGASVKLSCTSGLNIKDTYINWVKQRPEQGLEWIGRIGPANGNTKYDPKFQGKATLTADTSSNTAYLQLSSLTSEDTAVYYCSRRWFFLYWGQGTTVT
VL: QLTQESALTTSPGETVTLTCRSSTGAVTTSNYATWVQEKPDHLFTGLIGGTKNRAPGVPARFSGSLIGDKAALTITGAQTEDEAIYFCALWYSNHWVFGGGTKLKI
In the case of B1, the “Molar excess of competitor, which leads to 50% inhibition of binding to the solid phase antigen” value [1] is reported as 10^2, the “Molar excess of competitor, which leads to 50% inhibition of binding to the solid phase antigen” value ([2]; competitor EDTA (noncomplexed), solid phase Y benzyl-DTPA-HSA conjugate) is reported as 10^2 and the “interaction with EDTA and the complexes thereof” value ([2]; statement in words, EDTA and its metal complexes) is reported as “particularly strong”. For the same molecule, the “Molar excess of competitor, which leads to 50% inhibition of binding to the solid phase antigen” value [3] was 10^2, the “Molar excess of competitor, which leads to 50% inhibition of binding to the solid phase antigen” value [4] was 10^3 and the “Molar excess of competitor, which leads to 50% inhibition of binding to the solid phase antigen” value [5] was 10^2. For the same molecule, the “Molar excess of competitor, which leads to 50% inhibition of binding to the solid phase antigen” value [6] was > 10^5, the “Molar excess of competitor, which leads to 50% inhibition of binding to the solid phase antigen” value [7] was 10^2 and the “Molar excess of competitor, which leads to 50% inhibition of binding to the solid phase antigen” value [8] was 10^2. The “Molar excess of competitor, which leads to 50% inhibition of binding to the solid phase antigen” value [9] was 10^3, the “Molar excess of competitor, which leads to 50% inhibition of binding to the solid phase antigen” value [10] was 10^2 and the “Molar excess of competitor, which leads to 50% inhibition of binding to the solid phase antigen” value [11] was 10^2. For the same molecule, the “Molar excess of competitor, which leads to 50% inhibition of binding to the solid phase antigen” value [12] was 10^2, the “Molar excess of competitor, which leads to 50% inhibition of binding to the solid phase antigen” value [13] was 10^4 and the “Molar excess of competitor, which leads to 50% inhibition of binding to the solid phase antigen” value [14] was 10^2. The “Molar excess of competitor, which leads to 50% inhibition of binding to the solid phase antigen” value [15] was 10^3 and the “Molar excess of competitor, which leads to 50% inhibition of binding to the solid phase antigen” value [16] was > 10^5.
